Assay results: patent publication US9993566B2, “SEZ6 modulators and methods of use” (AbbVie Stemcentrx LLC, priority 2013, dated 2018)
Positions count from the first letter of the chain named.

B1: SC17.28: murine anti-SEZ6 antibody (antibody, V domains shown)
VH: QVHLPQSRPELVKPGASVKISCKASGYGFTRSYIHWVKQRPGQGLEWIGYISSGSGGTTYNQKFKGKASLTADNPSSTAYMHLSSLTSEDSAIYFCARGGVRYFDVWGAGTTVTVSS
VL: DILLTQSPAILSVSPGEGVSFSCRASQSIGTSIHWYQQRTNGSPRLLIKYASESISGIPSRFSGSGSGTDFTLRINSLESEDIADYYCQQSNSWPLTFGAGTKLELK
modifications: Murine SC17.28 VH; Murine SC17.28 VL
notes: murine anti-SEZ6 antibody
B2: SC17.17: murine anti-SEZ6 antibody (antibody, V domains shown)
VH: EVQLQQSGPEVMKPGASVKMSCKASGYTFTDYNMHWVKQNQGKSLEWIGEINPNIGGTGYNQKFKGKATLTVHKSSSTAYMELRSLTSEDSAVYYCARTYSYYSYEFAYWGQGTLVTVSA
VL: QIVLTQSPAIMSASPGEKVTMTCSASSSVSYMHWYQQKSGTSPKRWIYDTSKLPSGVPARFSGSGSGTSYSLTISSMEAEDAATYYCQQWSSTPPTFGAGTKLELK
modifications: Murine SC17.17 VH; Murine SC17.17 VL
notes: murine anti-SEZ6 antibody
B3: SC17.45: murine anti-SEZ6 antibody (antibody, V domains shown)
VH: QVQLQQPGSVLVRPGDSVKLSCKASGYTFTSYWMHWVKQSPGQGLEWIGEIHPHSGSTNYNEKFKGKATLTVDTSSSTAYVDLSSLTSEDSAVYYCVGGHYDYWGQGTTLTVSS
VL: ENVLTQSPAIMSASPGEKVTMTCSASSSVNYMYWYQQKSSTSPKLWIYDTSKLTSGVPGRFSGSGSGNSYSLTISNMEAEDVATYYCFQGSGYPLTFGSGTKLEIK
modifications: Murine SC17.45 VH; Murine SC17.45 VL
notes: murine anti-SEZ6 antibody
B4: SC17.36: murine anti-SEZ6 antibody (antibody, V domains shown)
VH: EVQLQESGPSLVKPSQSQSLTCSVTGDSITSDYWNWIRKFPGKKVEYMGYINYSGSTYYNPSLKSRISITRDTSKNQYYLQLNSVTSEDTATYYCARTSYYNKFLPFAYWGQGTLVTVSA
VL: QIVLTQSPALMSASPGEKVTMTCSASSSVSYMYWYQQKPRSSPKPWIYLTSNLASGVPARFSGSGSGTSYSLTISSMEAEDAATYYCQQWSSNPPTFGGGTKLEIK
modifications: Murine SC17.36 VH; Murine SC17.36 VL
notes: murine anti-SEZ6 antibody
B5: SC17.121: murine anti-SEZ6 antibody (antibody, V domains shown)
VH: EVQLQQSGPELMKPGASVKMSCKASGYTFTDHNIHWVKQHQGKSLEWIGEINPNTGGTGYNQKFQGKATMTVDKSSSTAYMELRSLTSEDSAVYYCVRGLYFFDYWGQGTTLTVSS
VL: B2 VL with P54A, A79T, S92N, A99S, G100V, L105I
modifications: Murine SC17.121 VH; Murine SC17.121 VL
notes: murine anti-SEZ6 antibody
B6: SC17.102: murine anti-SEZ6 antibody (antibody, V domains shown)
VH: EVQLQQSGPELMKPGASVKMSCKASGDTFTDYNIHWVKQNQGKSLEWIGEVNPNIGGIGYNQKFKGKATLTVDKSSSTAYMELRSLTSEDSAVYYCAMGRWYFDVWGAGTTVTVSS
VL: B2 VL with P54A, A59P, S64R, Q89H, T93N, L105M
modifications: Murine SC17.102 VH; Murine SC17.102 VL
notes: murine anti-SEZ6 antibody
B7: SC17.191: murine anti-SEZ6 antibody (antibody, V domains shown)
VH: EVQLQQSGPELMKPGASVKMSCKASGYTFTDYNMHWVKQNQGKSLEWIGEINPNTGGTGYNQKFKDKATLTVDKSSSTAYMELRSLTSEDSAVYYCARIPSLRRYYFDYWGQGTTLTVSS
VL: B2 VL with P54A, S62T, T93S
modifications: Murine SC17.191 VH; Murine SC17.191 VL
notes: murine anti-SEZ6 antibody
B8: SC17.166: murine anti-SEZ6 antibody (antibody, V domains shown)
VH: EVQLQQSGPELMKPGASVKMSCKASGYIFTDYNMHWVKQNQGKSLEWIGEVNPNTGGIGYNQKFKGKATLTVDKSSSTAYMDLRSLTSEDSAVYYCARDGNYCFDYWGQGTTLTVSS
VL: B2 VL with V29I, P54A, S76N, A99G, L105I
modifications: Murine SC17.166 VH; Murine SC17.166 VL
notes: murine anti-SEZ6 antibody
B9: SC17.4: murine anti-SEZ6 antibody (antibody, V domains shown)
VH: QIQLVQSGPELKKPGETVKISCKASGYTFTDYSMHWVKQAPGKGLKWLGWINTETGEPTYSEDFKGRFAFSLETSASTAYLQINNLKNEDTATYFCVKNKGWFAYWGQGTLVTVSA
VL: DIKMTQSPSSMYASLGERVTITCKASQDINSYLTWFQQKPGKSPKTLIYRANRLIDGVPSRFSGSGSGQDYSLTISSLDYEDMGIYYCLQYDDFPWTFGGGTKLEIK
modifications: Murine SC17.4 VH; Murine SC17.4 VL
notes: murine anti-SEZ6 antibody
B10: SC17.156: murine anti-SEZ6 antibody (antibody, V domains shown)
VH: QVTLKESGPGILQPSQTLSLTCSFSGFSLSTSGMGVSWIRKTSGKGLEWLAHIFWDDDKWYNPSLKSRLTISKATSSNQVFLILTSVDTADTATYYCATFYGLYFAYWGQGTTLTVSS
VL: DVVMTQSPLSLPVSLGDQASISCRSSQSIVHSNGNTYLEWYLQKPGQSPKLLIYKVSNRFSGVPDRFSGSGSGTDFTLKISRVEAEDLGVYYCFQGSHVPPTFGGGTKLEIK
modifications: Murine SC17.156 VH; Murine SC17.156 VL
notes: murine anti-SEZ6 antibody

Tested on: rat SEZ6
Sequence (as listed by the source): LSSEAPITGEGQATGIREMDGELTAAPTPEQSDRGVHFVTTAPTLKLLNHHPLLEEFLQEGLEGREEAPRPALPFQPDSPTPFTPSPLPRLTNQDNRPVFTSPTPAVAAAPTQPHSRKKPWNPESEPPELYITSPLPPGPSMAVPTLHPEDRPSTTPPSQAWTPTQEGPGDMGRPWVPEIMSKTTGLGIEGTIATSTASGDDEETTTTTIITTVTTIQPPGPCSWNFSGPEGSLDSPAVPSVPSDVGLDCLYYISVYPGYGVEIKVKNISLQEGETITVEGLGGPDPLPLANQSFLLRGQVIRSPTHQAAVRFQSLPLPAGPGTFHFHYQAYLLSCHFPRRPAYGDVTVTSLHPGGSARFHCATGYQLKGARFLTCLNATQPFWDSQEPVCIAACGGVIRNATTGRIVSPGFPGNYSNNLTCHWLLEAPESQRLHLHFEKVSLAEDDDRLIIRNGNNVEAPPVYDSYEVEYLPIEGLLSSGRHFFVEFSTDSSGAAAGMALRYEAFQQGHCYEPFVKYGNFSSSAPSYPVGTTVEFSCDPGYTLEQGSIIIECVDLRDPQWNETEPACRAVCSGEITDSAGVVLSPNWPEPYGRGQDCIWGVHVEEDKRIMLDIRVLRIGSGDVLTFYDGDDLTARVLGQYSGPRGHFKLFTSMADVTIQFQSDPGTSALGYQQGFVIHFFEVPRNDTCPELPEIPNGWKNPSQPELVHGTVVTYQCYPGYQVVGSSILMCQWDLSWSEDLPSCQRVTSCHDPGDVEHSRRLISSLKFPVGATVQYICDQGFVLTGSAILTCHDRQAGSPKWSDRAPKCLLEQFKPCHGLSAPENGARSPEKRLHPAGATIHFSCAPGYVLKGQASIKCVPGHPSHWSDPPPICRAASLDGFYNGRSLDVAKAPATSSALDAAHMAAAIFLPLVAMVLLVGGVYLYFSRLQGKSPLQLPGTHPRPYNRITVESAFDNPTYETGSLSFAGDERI
Assay: Flow cytometry cross reactivity, RIN-m5F cells
Assay type: binding
Conditions: 5 μg/mL antibody
Protocol: (§1) In this regard flow cytometry was performed using a FACSCanto II as per the manufacturer's instructions in order to confirm that selected SC17 antibody modulators can immunospecifically associate with human SEZ6 and to determine whether the same modulators cross-react with cynomolgus, rat and/or murine SEZ6 in addition to SEZ6L and SEZ6L2. More particularly modulators were tested for cross reactivity to murine SEZ6 and rat SEZ6 by flow cytometry against Neuro2a (ATCC Cat # CCL131), and RIN-m5F (ATCC cat # CRL-11605) cell lines which express mouse SEZ6 and rat SEZ6, respectively. For examining cross reactivity to cynomolgus SEZ6, yeast displaying the extracellular domain of cynomolgus SEZ6 (Boder et al, 1997) were used for flow cytometry analysis.
(§2) Briefly 1×10^5 cells per well of Neuro2a, RIN-5mF, or yeast displaying cynomolgus SEZ6 cells were incubated for 30 minutes with 50 μL PBS (2% FCS) buffer with 5 μg/mL antibody. Cells were washed twice with the same buffer and then incubated with 50 μL per sample DyLight 649 labeled goat-anti-mouse IgG, Fc fragment specific secondary diluted 1:200 in PBS buffer. After incubating for 15 minutes cells were washed twice with the PBS buffer and re-suspended in the same with DAPI for flow cytometry analysis of Neuro2a and Rin-m5F or buffer without DAPI for flow cytometric analysis of yeast cells with cSEZ6.

Row | Molecule | cross reactivity to rat SEZ6
1 | B1 | cross reactive
2 | B2 | cross reactive

Tested on: cynomolgus SEZ6
Assay: Flow cytometry cross reactivity, yeast displaying extracellular domain of cynomolgus SEZ6
Assay type: binding
Conditions: 5 μg/mL antibody
Protocol: as §1, §2

Row | Molecule | cross reactivity to cynomolgus SEZ6
3 | B3 | cross reactive
4 | B2 | cross reactive
5 | B4 | cross reactive

Biological target: T1, SEZ6 ECD (Homo sapiens, UniProt Q53EL9)
T1 construct: SEZ6 extracellular domain (amino acids 1-904); expressed in transfected cells; host or cells: yeast (surface display, Cochran et al. protocol)
T1 sequence (Q53EL9 20-923): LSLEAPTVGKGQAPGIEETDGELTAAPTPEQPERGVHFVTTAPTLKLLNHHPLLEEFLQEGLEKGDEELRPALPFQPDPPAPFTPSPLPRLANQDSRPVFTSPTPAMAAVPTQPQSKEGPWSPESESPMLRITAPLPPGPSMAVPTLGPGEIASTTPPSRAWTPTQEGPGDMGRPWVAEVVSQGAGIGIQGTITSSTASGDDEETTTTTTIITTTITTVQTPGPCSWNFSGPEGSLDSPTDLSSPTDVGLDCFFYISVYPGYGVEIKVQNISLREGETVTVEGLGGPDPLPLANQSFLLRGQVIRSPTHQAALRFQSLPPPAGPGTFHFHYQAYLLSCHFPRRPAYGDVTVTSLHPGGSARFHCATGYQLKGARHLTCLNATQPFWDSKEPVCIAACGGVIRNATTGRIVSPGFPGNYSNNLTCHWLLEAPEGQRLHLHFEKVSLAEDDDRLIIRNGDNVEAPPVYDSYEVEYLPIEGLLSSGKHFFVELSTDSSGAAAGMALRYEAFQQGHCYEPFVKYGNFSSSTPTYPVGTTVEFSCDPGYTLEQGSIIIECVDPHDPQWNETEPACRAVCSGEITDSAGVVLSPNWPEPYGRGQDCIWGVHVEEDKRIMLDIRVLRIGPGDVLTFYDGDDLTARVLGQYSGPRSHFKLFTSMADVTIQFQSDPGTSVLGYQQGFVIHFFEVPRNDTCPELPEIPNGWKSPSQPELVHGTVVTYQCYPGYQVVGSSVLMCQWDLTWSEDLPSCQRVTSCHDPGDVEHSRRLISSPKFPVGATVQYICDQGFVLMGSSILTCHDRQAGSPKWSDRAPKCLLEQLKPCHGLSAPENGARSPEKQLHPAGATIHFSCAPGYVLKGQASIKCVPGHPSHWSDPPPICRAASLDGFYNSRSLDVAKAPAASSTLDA
Assay: Fine epitope mapping (phage display peptide library or yeast-displayed SEZ6 ECD mutants)
Assay type: binding
Conditions: epitope conformational (discontinuous) or linear
Protocol: Epitopes were classified either as conformational (i.e. discontinuous) or linear. Yeast displaying the SEZ6 ECD construct was heat treated for 30 minutes at 80° C. in order to denature the antigen, washed twice in ice-cold PBSA and then subjected to the same staining protocol and flow cytometry analysis as described above. Antibodies that bound to both the denatured and native yeast were classified as binding to a linear epitope, whereas antibodies that bound native yeast but not denatured yeast were classified as conformationally specific.
Fine epitope mapping was further performed on selected antibodies to determine the specific amino acids to which they bound. Antibodies that bound to a linear epitope were mapped using the Ph.D.-12 phage display peptide library kit (New England Biolabs E8110S). The antibody selected for epitope mapping was coated onto a Nunc MaxiSorp tube (Nunc) at 50 μg/mL in 3 mL 0.1 M sodium bicarbonate solution, pH 8 and incubated overnight. The tube was blocked with 3% BSA solution in bicarbonate solution. Then, 10^11 input phage in PBS+0.1% Tween-20 was allowed to bind, followed by ten consecutive washes with 0.1% Tween-20 to wash away non-binding phage. Remaining phage were eluted with 1 mL 0.2 M glycine for 10 minutes at room temperature with gentle agitation, followed by neutralization with 150 μL 1 M Tris-HCl pH 9. Eluted phage were amplified and panned again with 10^11 input phage, using 0.5% Tween-20 during the wash steps to increase selection stringency. DNA from 24 plaques of the eluted phage from the second round was isolated using the Qiaprep M13 Spin kit (Qiagen) and sequenced. Binding of clonal phage was confirmed using an ELISA assay, where the mapped antibody or a control antibody was coated onto an ELISA plate, blocked, and exposed to each clone phage. Phage binding was detected using horseradish peroxidase conjugated anti-M13 antibody (GE Healthcare), and the 1-Step Turbo TMB ELISA solution (Pierce). Phage peptide sequences from specifically binding phage were aligned using Vector NTI (Life Technologies) against the antigen ECD peptide sequence to determine the epitope of binding.
Selected antibodies that bound to a discontinuous epitope were mapped using the technique described by Chao et al. (2007). Libraries of SEZ6 ECD mutants were generated with error prone PCR using nucleotide analogues 8-oxo-2′deoxyguanosine-5′-triphosphate and 2′-deoxy-p-nucleoside-5′triphosphate (both from TriLink Bio) for a target mutagenesis rate of one amino acid mutation per clone. These were transformed into a yeast display format. Using the technique described above for domain-level mapping, the library was stained for c-myc and antibody binding at 50 nM. […] These clones were re-grown, and subjected to another round of FACS sorting for loss of binding to the target antibody. Using the Zymoprep Yeast Plasmid Miniprep kit (Zymo Research), individual ECD clones were isolated and sequenced. Where necessary, mutations were reformatted as single-mutant ECD clones using the Quikchange site directed mutagenesis kit (Agilent).
Individual ECD clones were next screened to determine whether loss of binding was due to a mutation in the epitope, or a mutation that caused misfolding. Mutations that involved cysteine, proline, and stop codons were automatically discarded due to the high likelihood of a misfolding mutation. Remaining ECD clones were then screened for binding to a non-competing, conformationally specific antibody. ECD clones that lost binding to non-competing, conformationally specific antibodies were concluded to contain misfolding mutations, whereas ECD clones that retained equivalent binding as wild type SEZ6 ECD were concluded to be properly folded. Mutations in the ECD clones in the latter group were concluded to be in the epitope. […]

Row | Discontinuous | Molecule
6 | Yes | B2
7 | Yes | B5
8 | Yes | B6
9 | Yes | B7
10 | Yes | B8
11 | Yes | B4
12 | No | B9
13 | Yes | B10

Biological target: T2, SEZ6L2 (Homo sapiens, UniProt Q6UXD5, INS830AYEELLDNRKLEV)
T2 construct: IgK signal peptide (N, cleaved yes); made in house; host or cells: HEK-293T or CHO-S
T2 sequence (Q6UXD5 with tags, fused parts or gaps with the stated changes): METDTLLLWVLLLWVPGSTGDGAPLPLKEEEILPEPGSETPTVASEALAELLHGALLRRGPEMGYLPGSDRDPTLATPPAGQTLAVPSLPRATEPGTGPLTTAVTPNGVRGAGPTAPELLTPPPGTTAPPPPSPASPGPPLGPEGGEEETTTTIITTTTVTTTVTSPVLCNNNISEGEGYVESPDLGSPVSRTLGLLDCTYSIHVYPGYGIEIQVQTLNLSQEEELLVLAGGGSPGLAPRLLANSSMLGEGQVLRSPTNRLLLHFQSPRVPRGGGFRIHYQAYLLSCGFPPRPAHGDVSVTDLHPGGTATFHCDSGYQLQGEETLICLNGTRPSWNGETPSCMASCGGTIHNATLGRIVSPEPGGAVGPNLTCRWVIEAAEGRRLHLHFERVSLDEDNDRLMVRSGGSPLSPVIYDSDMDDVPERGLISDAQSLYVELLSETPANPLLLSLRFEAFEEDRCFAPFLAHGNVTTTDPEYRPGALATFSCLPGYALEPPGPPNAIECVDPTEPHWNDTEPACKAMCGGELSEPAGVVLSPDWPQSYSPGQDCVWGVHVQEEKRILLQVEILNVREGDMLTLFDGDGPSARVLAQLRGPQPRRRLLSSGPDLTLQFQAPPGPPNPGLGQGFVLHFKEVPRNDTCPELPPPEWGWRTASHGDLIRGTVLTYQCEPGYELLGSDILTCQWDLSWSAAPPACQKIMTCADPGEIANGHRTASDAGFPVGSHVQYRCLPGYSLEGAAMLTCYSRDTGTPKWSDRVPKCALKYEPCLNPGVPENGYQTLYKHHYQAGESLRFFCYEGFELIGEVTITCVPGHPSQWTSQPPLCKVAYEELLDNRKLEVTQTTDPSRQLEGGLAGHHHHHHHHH
Assay: ELISA cross reactivity to family member SEZ6L2
Assay type: binding
Parameters: key to binds SEZ6 family member SEZ6L2 (dagger): *: antibodies that bind SEZ6 family members SEZ6L and SEZ6L2 are designated with an asterisk and/or a dagger, respectively; †: antibodies that bind SEZ6 family members SEZ6L and SEZ6L2 are designated with an asterisk and/or a dagger, respectively
Conditions: ELISA, antibody 1 μg/mL
Protocol: To determine cross reactivity to family member proteins, SEZ6L and SEZ6L2, an ELISA-based assay was used. Plates were coated with SEZ6, SEZ6L, or SEZ6L2 proteins at 0.2 μg/mL in PBS overnight. After washing with PBS containing 0.05% (v/v) Tween 20 (PBST), the wells were blocked with 2% (w/v) BSA in PBS (PBSA), 100 μL/well for 1 hour at room temperature. Antibody was then added at 1 μg/mL in 100 μL PBSA for 1 hour at room temperature. After washing with PBST, 100 μL/well HRP-labeled goat anti-mouse IgG diluted 1:2,000 in PBSA for 1 hour at room temperature. The plates were washed and 100 μL/well of the TMB substrate solution (Thermo Scientific 34028) was added for 15 minutes at room temperature. After developing, an equal volume of 2M H2SO4 was added to stop substrate development and analyzed by spectrophotometer at OD 450. […] As discussed above, such pan-SEZ6 antibodies are compatible with the teachings herein and may be used in conjunction with the disclosed methods.

Row | cross reactivity with SEZ6L2 | Molecule
14 | cross-reactive | B1

Same assay, conditions: mark in Table 5

Row | Molecule | binds SEZ6 family member SEZ6L2 (dagger)
15 | B1 | SC17.6^†, SC17.28^†, SC17.103, SC17.109, SC17.119,
